Source: the supplement of paper PMC10126150
± gives the standard deviation of the averaged measurements.

System: ATP
Assay: switch fluorescence ratio, 500 uM ATP over buffer (Cy3 cluster intensity, sum of 5 cycles each) (fold (ratio)); higher = stronger signal-on switching upon ATP binding; sequences stand for … in TCGTCGGCAGCGTCAGATGTGTATAAGAGACAGTTTTTTTTTTTTTTTTTTTTTTTTT…TC
Settings: aptamer strand: ATP DNA aptamer (quencher-CACCTGGGGGAGTATTGCGGAGGAAGG + anchor), 100 nM annealed; ATP concentration: 500 uM
How it was run: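 Switching-strand clusters labelled with Cy3 on a modified Illumina MiSeq flow-cell were annealed to 100 nM quencher-labelled ATP aptamer, imaged in selection buffer, and re-imaged after 15 min with 500 uM ATP at 22 °C. This was done over five cycles with NaOH stripping and re-annealing in between. The fluorescence ratio is summed target-cycle over summed buffer-cycle Cy3 intensity per cluster, averaged per switch-domain sequence, excluding clusters outside 100-1000 RFU.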
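Note: ATP exposure 15 min at 22 °C before imaging.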

Sequence | switch fluorescence ratio
TGCAAGGGTT | 1.12 ± 0.088
TGCAAGGTTA | 1.02 ± 0.051
TGCAAGGTTT | 1.05 ± 0.1
TGCAAGTGGC | 1.09 ± 0.15
TGCAATAATA | 1.06 ± 0.091
TGCAATGTTT | 1.38 ± 0.52
TGCACAGGCT | 1.119 ± 0.0062
TGCACATTCC | 1.7 ± 0.15
TGCACCCGTA | 1.054 ± 0.0013
TGCACGCAGC | 1.25 ± 0.09
TGCACGGTTG | 1.002 ± 0.0026
TGCACTCTCA | 1.04 ± 0.032
TGCAGAAGCC | 1.02 ± 0.026
TGCAGACAGA | 1.02 ± 0.055
TGCAGCTGCG | 0.974 ± 0.049
TGCAGGAGAA | 0.9718 ± 0.0087
TGCAGGAGCT | 1.01 ± 0.032
TGCAGGATGC | 0.971 ± 0.027
TGCAGGGAGT | 1.04 ± 0.037
TGCAGGGCAG | 0.98885 ± 0.00071
TGCAGGGGCT | 1.15 ± 0.22
TGCAGGTGGC | 1.13 ± 0.035

Sequence | switch fluorescence ratio
TGCAGGTTTT | 1.01 ± 0.054
TGCAGTAGCG | 0.9936 ± 0.0051
TGCAGTGCGT | 1.0018 ± 9.8e-05
TGCAGTGGGA | 1.02 ± 0.016
TGCAGTTTGT | 0.9929 ± 0.0065
TGCATCAGCT | 1.03 ± 0.046
TGCATGGCTG | 0.99 ± 0.01
TGCATGGGGT | 1.01 ± 0.022
TGCATTACGT | 1.35 ± 0.015
TGCATTATTA | 0.995 ± 0.049
TGCATTGCTG | 1.01 ± 0.038
TGCATTTCAG | 1 ± 0.025
TGCCAATGTG | 0.989 ± 0.013
TGCCACGTAA | 1.3 ± 0.065
TGCCACTGGG | 1.06 ± 0.019
TGCCAGTTGT | 1.006 ± 0.0076
TGCCGAGTGC | 1.046 ± 0.0083
TGCCGCTTAA | 1.193 ± 0.0089
TGCCGGAATA | 1.38 ± 0.041
TGCCGGGCTT | 1.01 ± 0.042
TGCCGGGGAT | 1.01 ± 0.015
TGCCGGGGGT | 1.03 ± 0.088

Sequence | switch fluorescence ratio
TGCCGGGGTC | 1 ± 0.048
TGCCGGTTGC | 0.99 ± 0.12
TGCCTAATTG | 0.977 ± 0.026
TGCCTACGGG | 1.02 ± 0.028
TGCCTCGGCG | 1.0022 ± 0.00021
TGCCTGGCAG | 1.08 ± 0.1
TGCCTGGCTG | 0.99 ± 0.05
TGCCTTGGGG | 1.07 ± 0.16
TGCGAACACT | 1.002 ± 0.0064
TGCGAGGGCA | 1.02 ± 0.0087
TGCGATAGAA | 0.994 ± 0.043
TGCGATTTAC | 1.15 ± 0.024
TGCGCAAGGG | 1.27 ± 0.31
TGCGGAGTAC | 1.33 ± 0.14
TGCGGCCCAT | 0.979 ± 0.016
TGCGGCGGGG | 1.07 ± 0.035
TGCGGCTTCA | 1.01 ± 0.016
TGCGGGATTA | 1.1 ± 0.18
TGCGGGGGCA | 1.02 ± 0.025
TGCGGGGGGA | 1.03 ± 0.036
TGCGGGGGTA | 0.999 ± 0.019
TGCGGGGTTT | 1.02 ± 0.054

Sequence | switch fluorescence ratio
TGCGGGTGCT | 1.04 ± 0.042
TGCGGGTTTT | 1.02 ± 0.016
TGCGGTATGG | 1.03 ± 0.017
TGCGGTTGTT | 0.999 ± 0.046
TGCGGTTTGA | 1.01 ± 0.012
TGCGTAAGGG | 1.03 ± 0.011
TGCGTCGCCT | 1.013 ± 0.0049
TGCGTGGTGG | 1.03 ± 0.019
TGCGTTAAGG | 1 ± 0.031
TGCGTTATCG | 1.025 ± 0.0072
TGCGTTCTGG | 1.048 ± 0.007
TGCTAACTCG | 1 ± 0.018
TGCTAACTTT | 0.999 ± 0.052
TGCTAATTGA | 1.01 ± 0.037
TGCTACAGTT | 0.985 ± 0.024
TGCTACCGGG | 1.058 ± 0.0016
TGCTAGGCTA | 1.02 ± 0.025
TGCTAGGGGC | 1.07 ± 0.036
TGCTATATTT | 1.01 ± 0.024
